Laboratory results from article PMC10791742 (2024).

What was measured:
[1] = target: T1, myotoxin II from Bothrops asper (Bothrops asper, UniProt P24605 17-137, biotin (EZ-Link NHS-PEG4-Biotin, molar ratio 1:1.5 toxin:biotin)); assay: BLI
[2] = target: T1, myotoxin II from Bothrops asper; assay: BLI; remark: listed apart in the source

T1 sequence (P24605 17-137): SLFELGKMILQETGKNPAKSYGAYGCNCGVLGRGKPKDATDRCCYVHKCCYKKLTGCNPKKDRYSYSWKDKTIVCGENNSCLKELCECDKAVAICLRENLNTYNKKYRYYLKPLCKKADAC

B1: G08(LALA + YTE) human IgG1 (antibody, V domains shown)
VH: EVQLVESGGGVVQPGRSLRLSCAASGFTFSSYGMHWVRQAPGKGLEWVAVISYDGSNKYYADSVKGRFTISRDNSKNTLYLQMNSLRAEDTAVYYCARTNYDSGDAFDIWGQGTLVTVSS
VL: NFMLTQPHSVSESPGKTVTISCTRSSGSIASNYVQWYQQRPGSSPTTVIYEDNQRPSGVPDRFSGSIDSSSNSASLTISGLKTEDEADYYCQSYDSSTVVFGGGTKLTVL
For B1, the koff [1] was 0.00283 s⁻¹ and the Kd [2] was 9.41 nM.
